Results: the supplement of paper PMC11246515
± gives the standard deviation of the averaged measurements.

Test: total protein half-life in vivo (active degradation + dilution); higher = more stable protein
[1] = E. coli NCM3722 delta-clpP delta-lon delta-hslV, growth: N-lim chemostat, doubling time 6 h
[2] = E. coli NCM3722 delta-clpP, growth: N-lim chemostat, doubling time 6 h
[3] = E. coli NCM3722 delta-hslV, growth: N-lim chemostat, doubling time 6 h
[4] = E. coli NCM3722 delta-lon, growth: N-lim chemostat, doubling time 6 h
[5] = E. coli NCM3722 delta-smpB, growth: N-lim chemostat, doubling time 6 h
[6] = wild type E. coli NCM3722, growth: C-lim chemostat, doubling time 6 h
[7] = wild type E. coli NCM3722, growth: C-lim chemostat, doubling time 12 h
[8] = wild type E. coli NCM3722, growth: N-lim chemostat, doubling time 6 h
[9] = wild type E. coli NCM3722, growth: P-lim chemostat, doubling time 6 h
[10] = wild type E. coli NCM3722, growth: P-lim chemostat, doubling time 12 h
[11] = wild type E. coli NCM3722, growth: C-lim chemostat, doubling time 3 h
[12] = wild type E. coli NCM3722, growth: N-lim chemostat, doubling time 12 h

MCGRFAQSQTREDYLALLAEDIERDIPYDPEPIGRYNVAPGTKVLLLSERDEHLHLDPVFWGYAPGWWDKPPLINARVETAATSRMFKPLWQHGRAICFADGWFEWKKEGDKKQPFFIYRADGQPIFMAAIGSTPFERGDEAEGFLIVTAAADQGLVDIHDRRPLVLSPEAAREWMRQEISGKEASEIAASGCVPANQFSWHPVSRAVGNVKNQGAELIQPV
total protein half-life in vivo [1]: 4.83 ± 0.49 h | total protein half-life in vivo [2]: 4.014 ± 0.026 h | total protein half-life in vivo [3]: 4.54 h | total protein half-life in vivo [4]: 4.55 ± 0.27 h | total protein half-life in vivo [5]: 3.52 ± 0.22 h | total protein half-life in vivo [6]: 5.39 ± 0.18 h | total protein half-life in vivo [7]: 9.42 ± 0.51 h | total protein half-life in vivo [8]: 3.45 ± 0.065 h | total protein half-life in vivo [9]: 5.07 ± 0.74 h | total protein half-life in vivo [10]: 9.67 ± 1.4 h

MCTTCGCGEGNLYIEGDEHNPHSAFRSAPFAPAARPKMKITGIKAPEFTPSQTEEGDLHYGHGEAGTHAPGMSQRRMLEVEIDVLDKNNRLAERNRARFAARKQLVLNLVSSPGSGKTTLLTETLMRLKDSVPCAVIEGDQQTVNDAARIRATGTPAIQVNTGKGCHLDAQMIADAAPRLPLDDNGILFIENVGNLVCPASFDLGEKHKVAVLSVTEGEDKPLKYPHMFAAASLMLLNKVDLLPYLNFDVEKCIACAREVNPEIEIILISATSGEGMDQWLNWLETQRCA [P0AAN3]
total protein half-life in vivo [1]: 4.03 ± 0.57 h | total protein half-life in vivo [2]: 3.15 h | total protein half-life in vivo [3]: 2.72 ± 0.035 h | total protein half-life in vivo [4]: 3.48 ± 0.13 h | total protein half-life in vivo [5]: 3.079 ± 0.0096 h | total protein half-life in vivo [11]: 2.29 ± 0.11 h | total protein half-life in vivo [6]: 4.19 ± 0.074 h | total protein half-life in vivo [7]: 6.66 ± 0.1 h | total protein half-life in vivo [8]: 3.14 ± 0.63 h | total protein half-life in vivo [12]: 3.83 ± 0.63 h | total protein half-life in vivo [9]: 3.69 ± 0.052 h | total protein half-life in vivo [10]: 7.22 ± 0.56 h

MDALELLINRRSASRLAEPAPTGEQLQNILRAGMRAPDHKSMQPWHFFVIEGEGRERFSAVLEQGAIAAGSDDKAIDKARNAPFRAPLIITVVAKCEENHKVPRWEQEMSAGCAVMAMQMAAVAQGFGGIWRSGALTESPVVREAFGCREQDKIVGFLYLGTPQLKASTSINVPDPTPFVTYF [P0ACY1]
total protein half-life in vivo [1]: 5.15 ± 0.18 h | total protein half-life in vivo [2]: 5.29 ± 0.85 h | total protein half-life in vivo [3]: 4.55 ± 0.042 h | total protein half-life in vivo [4]: 4.85 ± 0.25 h | total protein half-life in vivo [5]: 4.85 ± 0.27 h | total protein half-life in vivo [11]: 2.91 ± 0.03 h | total protein half-life in vivo [6]: 5.49 ± 0.1 h | total protein half-life in vivo [7]: 9.81 ± 4.2 h | total protein half-life in vivo [8]: 4.7 ± 0.14 h | total protein half-life in vivo [12]: 7.1 ± 0.14 h | total protein half-life in vivo [9]: 5.6 ± 0.17 h | total protein half-life in vivo [10]: 11.6 ± 1.3 h

MDALSRLLMLNAPQGTIDKNCVLGSDWQLPHGAGELSVIRWHALTQGAAKLEMPTGEIFTLRPGNVVLLPQNSAHRLSHVDNESTCIVCGTLRLQHSARYFLTSLPETLFLAPVNHSVEYNWLREAIPFLQQESRSAMPGVDALCSQICATFFTLAVREWIAQVNTEKNILSLLLHPRLGAVIQQMLEMPGHAWTVESLASIAHMSRASFAQLFRDVSGTTPLAVLTKLRLQIAAQMFSRETLPVVVIAESVGYASESSFHKAFVREFGCTPGEYRERVRQLAP
total protein half-life in vivo [3]: 6.33 h | total protein half-life in vivo [4]: 6.04 h | total protein half-life in vivo [5]: 5.156 ± 0.014 h | total protein half-life in vivo [6]: 5.12 ± 3.4 h | total protein half-life in vivo [7]: 11.8 ± 2.5 h | total protein half-life in vivo [8]: 5.92 ± 0.51 h | total protein half-life in vivo [9]: 5.4 ± 0.16 h | total protein half-life in vivo [10]: 12.4 ± 1.3 h

MDAMKYNDLRDFLTLLEQQGELKRITLPVDPHLEITEIADRTLRAGGPALLFENPKGYSMPVLCNLFGTPKRVAMGMGQEDVSALREVGKLLAFLKEPEPPKGFRDLFDKLPQFKQVLNMPTKRLRGAPCQQKIVSGDDVDLNRIPIMTCWPEDAAPLITWGLTVTRGPHKERQNLGIYRQQLIGKNKLIMRWLSHRGGALDYQEWCAAHPGERFPVSVALGADPATILGAVTPVPDTLSEYAFAGLLRGTKTEVVKCISNDLEVPASAEIVLEGYIEQGETAPEGPYGDHTGYYNEVDSFPVFTVTHITQREDAIYHSTYTGRPPDEPAVLGVALNEVFVPILQKQFPEIVDFYLPPEGCSYRLAVVTIKKQYAGHAKRVMMGVWSFLRQFMYTKFVIVCDDDVNARDWNDVIWAITTRMDPARDTVLVENTPIDYLDFASPVSGLGSKMGLDATNKWPGETQREWGRPIKKDPDVVAHIDAIWDELAIFNNGKSA [P0AAB4]
total protein half-life in vivo [1]: 6.47 ± 0.5 h | total protein half-life in vivo [2]: 6.032 ± 0.049 h | total protein half-life in vivo [3]: 6.88 ± 0.78 h | total protein half-life in vivo [4]: 6.27 ± 0.71 h | total protein half-life in vivo [5]: 6.38 ± 0.54 h | total protein half-life in vivo [11]: 2.98 ± 0.37 h | total protein half-life in vivo [6]: 6.29 ± 0.21 h | total protein half-life in vivo [7]: 11.3 ± 0.45 h | total protein half-life in vivo [8]: 5.82 ± 0.23 h | total protein half-life in vivo [12]: 11.4 ± 0.32 h | total protein half-life in vivo [9]: 5.99 ± 0.093 h | total protein half-life in vivo [10]: 12.5 ± 0.62 h

MDDLTAQALKDFTARYCDAWHEEHKSWPLSEELYGVPSPCIISTTEDAVYWQPQPFTGEQNVNAVERAFDIVIQPTIHTFYTTQFAGDMHAQFGDIKLTLLQTWSEDDFRRVQENLIGHLVTQKRLKLPPTLFIATLEEELEVISVCNLSGEVCKETLGTRKRTHLASNLAEFLNQLKPLL [P0A8U0]
total protein half-life in vivo [1]: 4.63 ± 0.19 h | total protein half-life in vivo [3]: 3.71 ± 0.25 h | total protein half-life in vivo [4]: 5.62 ± 1.2 h | total protein half-life in vivo [5]: 4.15 ± 0.19 h | total protein half-life in vivo [11]: > 4 h | total protein half-life in vivo [6]: 4.21 ± 1.8 h | total protein half-life in vivo [7]: 9.71 h | total protein half-life in vivo [8]: 3.72 h | total protein half-life in vivo [12]: 7.43 ± 1.4 h | total protein half-life in vivo [9]: 5.7 ± 0.28 h | total protein half-life in vivo [10]: 12.7 ± 2.7 h

MDFNLNDEQELFVAGIRELMASENWEAYFAECDRDSVYPERFVKALADMGIDSLLIPEEHGGLDAGFVTLAAVWMELGRLGAPTYVLYQLPGGFNTFLREGTQEQIDKIMAFRGTGKQMWNSAITEPGAGSDVGSLKTTYTRRNGKIYLNGSKCFITSSAYTPYIVVMARDGASPDKPVYTEWFVDMSKPGIKVTKLEKLGLRMDSCCEITFDDVELDEKDMFGREGNGFNRVKEEFDHERFLVALTNYGTAMCAFEDAARYANQRVQFGEAIGRFQLIQEKFAHMAIKLNSMKNMLYEAAWKADNGTITSGDAAMCKYFCANAAFEVVDSAMQVLGGVGIAGNHRISRFWRDLRVDRVSGGSDEMQILTLGRAVLKQYR
total protein half-life in vivo [1]: > 8 h | total protein half-life in vivo [4]: 3.62 ± 0.096 h | total protein half-life in vivo [5]: 2.77 ± 0.42 h | total protein half-life in vivo [11]: 2.46 h | total protein half-life in vivo [6]: 3.58 h | total protein half-life in vivo [7]: 7.41 ± 1.4 h | total protein half-life in vivo [9]: 5.45 ± 0.16 h | total protein half-life in vivo [10]: 11.5 ± 1.7 h
